Reference: publication PMC3605307

What was measured:
[1] = target: Human TRAIL-R2-Fc D148A (human) (UniProt O14763); assay: SPR
[2] = target: Human TRAIL-R2-Fc F112A (human) (UniProt O14763); assay: SPR
[3] = target: Human TRAIL-R2-Fc V167A (human) (UniProt O14763); assay: SPR
[4] = target: human TRAIL-R2-Fc E78A/D109A (human) (UniProt O14763); assay: SPR
[5] = target: human TRAIL-R2-Fc K155A (human) (UniProt O14763); assay: SPR
[6] = target: human TRAIL-R2-Fc L110A/L114A (human) (UniProt O14763); assay: SPR
[7] = target: human TRAIL-R2-Fc M152A (human) (UniProt O14763); assay: SPR
[8] = target: human TRAIL-R2-Fc M152A/R154A/K155A (human) (UniProt O14763); assay: SPR
[9] = target: human TRAIL-R2-Fc P150A (human) (UniProt O14763); assay: SPR
[10] = target: human TRAIL-R2-Fc R154A (human) (UniProt O14763); assay: SPR
[11] = target: Human CD155-Fc fusion protein (human) (UniProt P15151); assay: SPR
[12] = target: Human TRAIL-R2-Fc D109A together with E78A (human) (UniProt O14763); assay: SPR
[13] = target: Human TRAIL-R2-Fc double mutation L110A and L114A (human) (UniProt O14763); assay: SPR
[14] = target: Human TRAIL-R2-Fc fusion protein (wild type) (human) (UniProt O14763); assay: SPR
[15] = target: TRAIL-R1-Fc fusion protein (UniProt O00220); assay: SPR
[16] = target: Recombinant UL141 ectodomain (soluble, released from the Fc fusion) (human cytomegalovirus (HCMV), FIX strain) (UniProt Q6RJQ3); assay: SEC; size-exclusion elution profiles of the purified proteins against marker proteins
[17] = target: TRAIL-R1 ECD (Homo sapiens) (UniProt O00220); assay: SPR; conditions: cited from earlier work
[18] = target: TRAIL-R2 ECD (Homo sapiens) (UniProt O14763); assay: SPR; conditions: cited from earlier work

Sequence of Human CD155-Fc fusion protein (human) (P15151 21-343): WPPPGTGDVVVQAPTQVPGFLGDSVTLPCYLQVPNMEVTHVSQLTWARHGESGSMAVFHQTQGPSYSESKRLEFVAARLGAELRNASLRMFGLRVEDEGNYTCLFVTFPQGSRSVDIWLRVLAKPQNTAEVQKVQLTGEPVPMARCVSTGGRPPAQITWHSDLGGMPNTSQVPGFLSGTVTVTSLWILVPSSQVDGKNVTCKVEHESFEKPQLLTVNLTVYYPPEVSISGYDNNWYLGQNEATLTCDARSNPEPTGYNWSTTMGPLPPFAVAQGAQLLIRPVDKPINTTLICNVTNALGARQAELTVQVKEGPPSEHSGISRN
Sequence of TRAIL-R1-Fc fusion protein (O00220 24-239): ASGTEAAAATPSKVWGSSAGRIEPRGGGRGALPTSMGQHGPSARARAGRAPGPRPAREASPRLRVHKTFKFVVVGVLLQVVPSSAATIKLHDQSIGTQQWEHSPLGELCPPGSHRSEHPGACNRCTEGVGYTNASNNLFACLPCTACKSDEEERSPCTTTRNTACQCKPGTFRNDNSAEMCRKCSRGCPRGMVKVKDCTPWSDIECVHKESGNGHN
Sequence of TRAIL-R1 ECD (Homo sapiens) (O00220 24-239): as above

HCMV UL141 ectodomain, soluble (released from the thrombin-cleavable Fc fusion) (from UniProt Q6RJQ3 37-278) (domain or fragment)
Kd [1]: 55.3 nM
koff [1]: 0.0013 s⁻¹
kon [1]: 23500 M⁻¹ s⁻¹
Kd [2]: 630 nM
koff [2]: 0.00566 s⁻¹
kon [2]: 8980 M⁻¹ s⁻¹
Kd [3]: 15.5 nM
koff [3]: 0.00048 s⁻¹
kon [3]: 31000 M⁻¹ s⁻¹
Kd [4]: 60.4 nM
koff [4]: 0.00151 s⁻¹
kon [4]: 25000 M⁻¹ s⁻¹
Kd [5]: 7.74 nM
koff [5]: 0.00038 s⁻¹
kon [5]: 49100 M⁻¹ s⁻¹
Kd [6]: 42.7 nM
koff [6]: 0.00064 s⁻¹
kon [6]: 15000 M⁻¹ s⁻¹
Kd [7]: 7.49 nM
koff [7]: 0.000382 s⁻¹
kon [7]: 51000 M⁻¹ s⁻¹
Kd [8]: 7.39 nM
koff [8]: 0.00027 s⁻¹
kon [8]: 36500 M⁻¹ s⁻¹
Kd [9]: 8.32 nM
koff [9]: 0.000391 s⁻¹
kon [9]: 47000 M⁻¹ s⁻¹
Kd [10]: 6.26 nM
koff [10]: 0.000243 s⁻¹
kon [10]: 38800 M⁻¹ s⁻¹

Pre-formed UL141–TRAIL-R2 complex (from UniProt Q6RJQ3;O14763)
K Dave [11]: 2 nM
Kd [11]: 2.19 nM
koff [11]: 0.000333 s⁻¹
kon [11]: 152000 M⁻¹ s⁻¹

Recombinant UL141 ectodomain (soluble, released from the Fc fusion) (from UniProt Q6RJQ3 37-278) (domain or fragment)
K Dave [11]: 2 nM
Kd [11]: 1.97 nM
koff [11]: 0.000346 s⁻¹
kon [11]: 176000 M⁻¹ s⁻¹
fold reduction of binding affinity against wild type [12]: 10 fold
Kd [1]: 55 nM
Kd [2]: 630 nM
Kd [3]: 15 nM
Kd [13]: 43 nM
Kd [14]: 5.96 nM
koff [14]: 7.21e-05 s⁻¹
kon [14]: 12100 M⁻¹ s⁻¹
KDeq [15]: 2.27 µM
Kd [15]: 2330 nM
koff [15]: 0.014 s⁻¹
kon [15]: 6020 M⁻¹ s⁻¹
stoichiometry N [16]: 2

UL141 (from UniProt Q6RJQ3)
Kd [17]: 2300 nM
Kd [18]: 6 nM
